This test concerns the target AMPAR subunit GluA1, flip isoform (UniProt P19490).

Residue numbers refer to the chain shown, from its start.

B1: TARP γ8 with eGFP in the C-tail (natural protein)
chain: MESLKRWNEERGLWCEKGVQVLLTTIGAFAAFGLMTIAISTDYWLYTRALICNTTNLTAGDDGPPHRGGSGSSEKKDPGGLTHSGLWRICCLEGLKRGVCVKINHFPEDTDYDHDSAEYLLRVVRASSIFPILSAILLLLGGVCVAASRVYKSKRNIILGAGILFVAAGLSNIIGVIVYISANAGEPGPKRDEEKKNHYSYGWSFYFGGLSFILAEVIGVLAVNIYIERSREAHCQSRSDLLKAGGGAGGSGGSGPSAILRLPSYRFRYRRRSRSSSRGSSEASPSRDASPGGPGGPGFASTDISMYTLSRDPSKGSVAAGLASAGGGGGGAGVGAYGGAAGAAGGGGTGSERDRGSSAGFLTLHNAFPKEAASGVTVTVTGPPAAPAPAPPAPAAPAPGTLSKEAAASNTNTLNRKTTPV
B1: the receptor recovery from desensitization, τrec (GluA1 alone 162.6 ms) was determined as 40.9 ms.

B2: ncAA-tagged TARP γ8 S72* with eGFP in the C-tail (natural protein)
chain: B1 chain with S72K
modifications: TCO*A (trans-cyclooct-2-en-L-lysine) at position 72
For the molecule B2, the receptor recovery from desensitization, τrec (GluA1 alone 162.6 ms) is 45.8 ms.

B3: ncAA-tagged TARP γ2 S44* with eGFP in the C-tail (natural protein)
chain: MGLFDRGVQMLLTTVGAFAAFSLMTIAVGTDYWLYSRGVCKTKKVSENETSKKNEEVMTHSGLWRTCCLEGNFKGLCKQIDHFPEDADYEADTAEYFLRAVRASSIFPILSVILLFMGGLCIAASEFYKTRHNIILSAGIFFVSAGLSNIIGIIVYISANAGDPSKSDSKKNSYSYGWSFYFGALSFIIAEMVGVLAVHMFIDRHKQLRATARATDYLQASAITRIPSYRYRYQRRSRSSSRSTEPSHSRDASPVGVKGFNTLPSTEISMYTLSRDPLKAATTPTATYNSDRDNSFLQVHNCIQKDSKDSLHANTANRRTTPV
modifications: TCO*A (trans-cyclooct-2-en-L-lysine) at position 44
Consider B3, for which the receptor recovery from desensitization, τrec (GluA1 alone 162.6 ms) is 62.3 ms.

B4: TARP γ2 with eGFP in the C-tail (natural protein)
chain: B3 chain with K44S
Turning to B4, the receptor recovery from desensitization, τrec (GluA1 alone 162.6 ms) was 57.1 ms.

(Values after publication doi:10.1101/2021.02.27.433189.)
